Measured values from patent publication US20240084011A1.

What was measured:
[1] = target: recombinant human CTLA-4 protein (human) (UniProt P16410); assay: SPR (Pioneer FE, OneStep), 25 C; 3xFLAG scFv captured by anti-FLAG M2, human CTLA-4 as analyte
[2] = target: recombinant mouse CTLA-4 protein (mouse) (UniProt P09793); assay: SPR (Pioneer FE, OneStep), 25 C; 3xFLAG scFv captured by anti-FLAG M2, mouse CTLA-4 as analyte
recombinant mouse CTLA-4 protein (mouse), sequence (P09793 36-161 limits assumed): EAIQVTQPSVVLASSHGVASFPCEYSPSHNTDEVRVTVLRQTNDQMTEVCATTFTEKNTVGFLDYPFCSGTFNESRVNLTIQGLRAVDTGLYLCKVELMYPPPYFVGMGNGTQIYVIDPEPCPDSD

recombinant human CTLA-4 protein (human), sequence (P16410 36-161 limits assumed): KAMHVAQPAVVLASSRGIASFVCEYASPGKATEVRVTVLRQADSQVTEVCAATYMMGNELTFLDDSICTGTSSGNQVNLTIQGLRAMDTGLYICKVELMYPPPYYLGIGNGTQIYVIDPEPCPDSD

Row | Binder | Kd [1] [nM] | Kd [2] [nM]
1 | 78-8D14 scFv (scFv, part only; not given: Linker, domain order, 3xFLAG tag, V domains shown, not shown: another chain or arm of the molecule; small tags and cut ends) VH: EVQLVESGGGLVQPGGSLRLSCAASGFTFSSYVMHWVRQAPGKGLEWVSAISWSGRGTYYADSVKGRFTISRDNSKNTLYLQMNSLRAEDTAVYYCARGRLFGLARYGEAFDVWGQGTLVTVSS VL: DIQMTQSPSSLSASVGDRVTITCQASRDISNYLNWYQQKPGKAPKLLIYDASNLETGVPSRFSGSGSGTDFTFTISSLQPEDIATYYCQQFNSFPLTFGQGTKVEIK | 0.32 | 0.17
2 | 78-8D22 scFv (scFv, part only; not given: Linker, domain order, 3xFLAG tag, V domains shown, not shown: another chain or arm of the molecule; small tags and cut ends) VH: EVQLVESGGGLVQPGGSLRLSCAASGFTFSSYVMHWVRQAPGKGLEWVSAISWSGSGTYYADSVKGRFTISRDNSKNTLYLQMNSLRAEDTAVYYCARGRLFGLARYGEAFDVWGQGTLVTVSS VL: DIQMTQSPSSLSASVGDRVTITCQASKDISNYLNWYQQKPGKAPKLLIYDASNLETGVPSRFSGSGSGTDFTFTISSLQPEDIATYYCQQFNSFALTFGQGTKVEIK | 0.16 | 0.37
3 | 78-24D1 scFv (scFv, part only; not given: Linker, domain order, 3xFLAG tag, V domains shown, not shown: another chain or arm of the molecule; small tags and cut ends) VH: EVQLVESGGGLVQPGGSLRLSCAASGFTFTSYSMHWVRQAPGKGLEWVSGISGSGRSTSYADSVKGRFTISRDNSKNTLYLQMNSLRAEDTAVYYCARDLMAFNLTRAGGFDVWGQGTLVTVSS VL: DIQMTQSPSSLSASVGDRVTITCQASQDISNFLNWYQQKPGKAPKLLIYDASNLETGVPSRFSGSGSGTDFTFTISSLQPEDIATYYCQQGDAWPWTFGQGTKVEIK | 1.15 | 0.059
4 | 78-24D8 scFv (scFv, part only; not given: Linker, domain order, 3xFLAG tag, V domains shown, not shown: another chain or arm of the molecule; small tags and cut ends) VH: EVQLVKSGGGLVQPGGSLRLSCAASGFTFSSYSMHWVRQAPGKGLEWVSGISGSGRSTSYADSVKGRFTISRDNSKNTLYLQMNSLRAEDTAVYYCARDLMAFNLTRTGGFDVWGQGTLVTVSS VL: DIQMTQSPSSLSASVGDRVTITCQASQDISNYLNWYQQKPGKAPKLLIYDASNLETGVPSRFSGSGSGTDFTFTINSLQPEDIATYYCQQGDAWPWTFGQGTKVEIK | 1.46 | 0.01
5 | 78-24D9 scFv (scFv, part only; not given: Linker, domain order, 3xFLAG tag, V domains shown, not shown: another chain or arm of the molecule; small tags and cut ends) VH: EVQLVESGGGLVQPGGSLRLSCAASGFTFSSSSMHWVRQAPGKGLEWVSGISGWGGSTSYADSVKGRFTISRDNSKNTLYLQMNSLRAEDTAVYYCARYLMSFNLTRTGWFDVWGQGTLVTVSS VL: DIQMTQSPSSLSASVGDRVTITCQASQDIANYLNWYQQKPGKAPKLLIYDASNLETGVPSRFSGSGSGTDFTFTISSLQPEDIATYYCQQSDAWPWTFGQGTKVEIK | 1.18 | 1.11
6 | 78-24D12 scFv (scFv, part only; not given: Linker, domain order, 3xFLAG tag, V domains shown, not shown: another chain or arm of the molecule; small tags and cut ends) VH: EVQLVESGGGLVQPGGSLRLSCAASGFTFSSYSMHWVRQAPGKGLEWVSGISGSGLSTSYADSVKGRFTISRDNSKNTLYLQMNSLRAEDTAVYYCARDLMAFNLTRTGGFDVWGQGTLVTVSS VL: DIQMTQSPSSLSASVGDRVTITCQASHDILNYLNWYQQKPGKAPKLLIYDASNLETGVPSRFSGSGSGTDFTFTISSLQPEDIATYYCQQGHAWLWTFGQGTKVEIK | 2.88 | 0.01
7 | 78-24D17 scFv (scFv, part only; not given: Linker, domain order, 3xFLAG tag, V domains shown, not shown: another chain or arm of the molecule; small tags and cut ends) VH: EVQLVESGGGLVQPGGSLRLSCAASGFTFSSSSMHWVRQAPGKGLEWVSGISGSGGSTSYADSVKGRFTISRDNSKNTLYLQMNSLRAEDTAVYYCARYLMSFNLTRTSWFDVWGQGTLVTVSS VL: DIQMTQSPSSLSASVGDRVTITCQASQAISNYLNWYQQKPGKAPKLLIYDASNLETGVPSRFSGSGSGTDFTFTISSLQPEDIATYYCQQGDAWPWTFGQGTKVEIK | 0.87 | 1.06
8 | 78-8 scFv (scFv, part only; not given: Linker, domain order, 3xFLAG tag, V domains shown, not shown: another chain or arm of the molecule; small tags and cut ends) VH: EVQLVESGGGLVQPGGSLRLSCAASGFTFSSYVMHWVRQAPGKGLEWVSAISGSGGGTYYADSVKGRFTISRDNSKNTLYLQMNSLRAEDTAVYYCARGRLIGLALYGEAFDVWGQGTLVTVSS VL: DIQMTQSPSSLSASVGDRVTITCQASKDISNYLNWYQQKPGKAPKLLIYDASNLETGVPSRFSGSGSGTDFTFTISSLQPEDIATYYCQQFNSFPLTFGQGTKVEIK | 168 | 0.06
9 | 78-8D2 scFv (scFv, part only; not given: Linker, domain order, 3xFLAG tag, V domains shown, not shown: another chain or arm of the molecule; small tags and cut ends) VH: EVQLVESGGGLVQPGGSLRLSCAASGFTFSSYVMHWVRQAPGKGLEWVSAITWSGRGTYYADSVKGRFTISRDNSKNTLYLQMNSLRAEDTAVYYCARGRLFGLALYGEAFDVWGQGTLVTVSS VL: DIQMTQSPSSLSASVGDRVTITCQASKDISNYLNWYQQKPGKAPKLLIYDASNLETGVPSRFSGSGSGTDFTFIISSLQPEDIATYYCQQFNSFPLTFGQGTKVEIK | 0.37 | 0.3
10 | 78-8D4 scFv (scFv, part only; not given: Linker, domain order, 3xFLAG tag, V domains shown, not shown: another chain or arm of the molecule; small tags and cut ends) VH: EVQLVESGGGLVQPGGSLRLSCAASGFTFSSYVMHWVRQAPGKGLEWVSAITWSGGGTYYADSVKGRFTISRDNSKNTLYLQMNSLRAEDTAVYYCARGRLFGLVRYGEAFDVWGQGTLVTVSS VL: DIQMTQSPSSLSASVGDRVTITCQASKDISNYLNWYQQKPGKAPKLLIYDASNLETGVPSRFSGSGSGTDFTFTISSLQPEDIATYYCQQFNSFPLTFGQGTKVEIK | 0.21 | 0.2
11 | 78-8D5 scFv (scFv, part only; not given: Linker, domain order, 3xFLAG tag, V domains shown, not shown: another chain or arm of the molecule; small tags and cut ends) VH: EVQLVESGGGLVQPGGSLRLSCAASGFTFSSYVMHWVRQAPGKGLEWVSAISWSGGGTYYADSVKGRFTISRDNSKNTLYLQMNSLRAEDTAVYYCARGRLFGLALYGEAFDVWGQGTLVTVSS VL: DIQMTQSPSSLSASVGDRVTITCQASKDISNYLNWYQQKPGKAPKLLIYDASNLETGVPSRFSGSGSGTDFTFTISSLQPEDIATYYCQQFNSFPLTFGQGTKVEIK | 0.74 | 0.42
12 | 78-8D6 scFv (scFv, part only; not given: Linker, domain order, 3xFLAG tag, V domains shown, not shown: another chain or arm of the molecule; small tags and cut ends) VH: EVQLVESGGGLVQPGGSLRLSCVASGFTFSSYVMHWVRQAPGKGLEWVSAISWSGGGTYYADSVKGRFTISRDNSKNTLYLQMNSLRAEDTAVYYCARGRLFGLALYGEAFDVWGQGTLVTVSS VL: DIQMTQSPSSLSASVGDRVTITCQASKDISNYLNWYQQKPGKAPKLLIYNASNLETGVPSRFSGSGSGTDFTFTISSLQPEDIATYYCQQFNSFPLTFGQGTKVEIK | 0.24 | 0.19
13 | 78-8D7 scFv (scFv, part only; not given: Linker, domain order, 3xFLAG tag, V domains shown, not shown: another chain or arm of the molecule; small tags and cut ends) VH: EVQLVESGGGLVQPGGSLRLSCAASGFTFSSYVMHWVRQAPGKGLEWVSAISWSGAGTYYADSVKGRFTISRDNSKNTLYLQMNSLRAEDTAVYYCARGRLFGRALYGEAFDVWGQGTLVTVSS VL: DIQMTQSPSSLSASVGDRVTITCQASKDISIYLNWYQQKPGKAPKLLIYDAFNLETGVSSRFSGSGSGTDFTFTISSLQPEDIATYYCQQFNSFPLTFGQGTKVEIK | 0.3 | 0.39
14 | 78-8D10 scFv (scFv, part only; not given: Linker, domain order, 3xFLAG tag, V domains shown, not shown: another chain or arm of the molecule; small tags and cut ends) VH: MEVQLVESGGGLVQPGGSLRLSCAASGFTFSSYVMHWVRQAPGKGLEWVSAISWSGRGTYYADSVKGRFTISRDNSKNTLYLQMNSLRAEDTAVYYCARGRLFGLALYGEAFDVWGQGTLVTVSS VL: DIQMTQSPSSLSASVGDRVTITCQASKDISNYLNWYQQKPGKAPKLLIYDASNLETGVPSRFSGSGSGTDFTFTISSLQPEDIATYYCQQFNSFPLTFGQGTKVEIK | 0.58 | 0.49
15 | 78-28 scFv (scFv, part only; not given: Linker, domain order, 3xFLAG tag, V domains shown, not shown: another chain or arm of the molecule; small tags and cut ends) VH: EVQLVESGGGLVQPGGSLRLSCAASGFTFSSYYMHWVRQAPGKGLEWVSAIYGNGGYTYYADSVKGRFTISRDNSKNTLYLQMNSLRAEDTAVYYCARGRPARHQVGFDVWGQGTLVTVSS VL: DIQMTQSPSSLSASVGDRVTITCQASLDISNYLNWYQQKPGKAPKLLIYDASNLETGVPSRFSGSGSGTDFTFTISSLQPEDIATYYCQQLYTVPLTFGQGTKVEIK |  | 2.57
16 | 78-36 scFv (scFv, part only; not given: Linker, domain order, 3xFLAG tag, V domains shown, not shown: another chain or arm of the molecule; small tags and cut ends) VH: MEVQLVESGGGLVQPGGSLRLSCVASGFTFSSYYMHWVRQAPGKGLEWVSAISGSGGSTYYADSVKGRFTISRDNSKNTLYLQMNSLRAEDTAVYYCARGRQVGKSSFGEAFDVWGQGTLVTVSS VL: DIQMTQSPSSLSASVGDRVTITCQASQDISNYLNWYQQKPGKAPKLLIYDASNLETGVPSRFSGSGSGTDFTFTISSLQPEDIATYYCQQFTSFPYTFGQGTKVEIK |  | 0.98
